In one series the target is T1, ZNF524 ZF1-4 (crystal) (human, UniProt Q96C55 107-237).
T1 sequence: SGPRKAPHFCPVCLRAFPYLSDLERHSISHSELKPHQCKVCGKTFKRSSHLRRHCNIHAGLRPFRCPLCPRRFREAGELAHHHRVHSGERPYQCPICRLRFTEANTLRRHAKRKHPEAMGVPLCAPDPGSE
In words: crystal structure 2.40 A; Zn2+; ITC: 20 mM Tris-HCl pH 7.5, 150 mM NaCl, 20 C; pull-down: 50 mM Tris-HCl pH 7.5, 150 mM NaCl, 0.5% IGEPAL, 5 mM MgCl2, 1 mM DTT, salmon sperm DNA, 4 C. As to conditions: protein: recombinant; tags: none (GST removed by TEV); 5' overhang 1 nt at each end (A and T).

Another series has as its target T2, ZNF524 ZF1-4 R180A (human, UniProt Q96C55 110-223, R180A).
T2 sequence: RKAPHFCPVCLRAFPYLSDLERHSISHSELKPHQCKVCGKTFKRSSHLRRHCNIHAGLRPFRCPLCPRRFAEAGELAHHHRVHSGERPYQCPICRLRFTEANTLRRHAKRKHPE
In words: ITC; ITC: 20 mM Tris-HCl pH 7.5, 150 mM NaCl, 20 C; pull-down: 50 mM Tris-HCl pH 7.5, 150 mM NaCl, 0.5% IGEPAL, 5 mM MgCl2, 1 mM DTT, salmon sperm DNA, 4 C. As to conditions: protein: recombinant; tags: none (GST removed by TEV); blunt.

A further series concerns the target T3, ZNF524 ZF1-4 R159A (human, UniProt Q96C55 110-223, R159A).
T3 sequence: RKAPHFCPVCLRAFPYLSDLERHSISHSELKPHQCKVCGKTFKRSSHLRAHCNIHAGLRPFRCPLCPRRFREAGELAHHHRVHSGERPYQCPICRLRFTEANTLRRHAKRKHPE
The description is as above. As to conditions: protein: recombinant; tags: none (GST removed by TEV); blunt.

Another series addresses T4, ZNF524 ZF2-3 (human, UniProt Q96C55 138-196).
T4 sequence: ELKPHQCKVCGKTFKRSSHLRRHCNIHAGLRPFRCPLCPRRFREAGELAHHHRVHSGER
Described as above. As to conditions: protein: recombinant; tags: none (GST removed by TEV); blunt.

The target of a further series is T5, ZNF524 ZF1-4 N211G (human, UniProt Q96C55 110-223, N211G).
T5 sequence: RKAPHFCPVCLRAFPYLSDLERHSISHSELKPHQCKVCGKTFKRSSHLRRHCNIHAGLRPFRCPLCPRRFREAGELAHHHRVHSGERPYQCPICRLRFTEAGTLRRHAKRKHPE
Described as above. As to conditions: protein: recombinant; tags: none (GST removed by TEV); blunt.

In the next series the target is T6, ZNF524 ZF1-4 R131A (human, UniProt Q96C55 110-223, R131A).
T6 sequence: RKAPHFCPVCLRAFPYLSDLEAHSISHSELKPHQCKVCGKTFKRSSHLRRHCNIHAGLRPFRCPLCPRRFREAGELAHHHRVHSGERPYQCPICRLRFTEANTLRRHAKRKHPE
The description is as above. As to conditions: protein: recombinant; tags: none (GST removed by TEV); blunt.

Series [1] deals with T7, ZNF524 ZF1-4 minimal domain (human, UniProt Q96C55 110-223).
T7 sequence: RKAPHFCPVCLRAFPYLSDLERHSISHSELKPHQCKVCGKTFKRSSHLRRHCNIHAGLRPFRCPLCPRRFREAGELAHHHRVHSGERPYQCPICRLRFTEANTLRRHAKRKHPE
Described as above. As to conditions: protein: recombinant; tags: none (GST removed by TEV); blunt.

A further series has as its target T8, ZNF524 ZF2M (human, UniProt Q96C55 110-223, R153A;S155A;H156A;R159A).
T8 sequence: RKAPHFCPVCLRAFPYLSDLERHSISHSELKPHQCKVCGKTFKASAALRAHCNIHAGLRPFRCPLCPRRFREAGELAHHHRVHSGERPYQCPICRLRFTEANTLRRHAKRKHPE
The series is described as above. As to conditions: protein: recombinant; tags: none (GST removed by TEV); blunt.

The target of another series is T9, ZNF524 ZF1-4 E184A (human, UniProt Q96C55 110-223, E184A).
T9 sequence: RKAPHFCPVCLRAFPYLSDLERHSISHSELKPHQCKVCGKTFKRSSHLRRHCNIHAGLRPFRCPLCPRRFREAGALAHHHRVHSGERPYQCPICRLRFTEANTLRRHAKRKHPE
Described as above. As to conditions: protein: recombinant; tags: none (GST removed by TEV); blunt.

A further series deals with T10, ZNF524 ZF1-4 R153A (human, UniProt Q96C55 110-223, R153A).
T10 sequence: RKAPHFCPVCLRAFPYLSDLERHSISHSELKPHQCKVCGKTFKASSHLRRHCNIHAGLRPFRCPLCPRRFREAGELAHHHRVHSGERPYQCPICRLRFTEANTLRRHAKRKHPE
The description is as above. As to conditions: protein: recombinant; tags: none (GST removed by TEV); blunt.

The next series has as its target T11, ZNF524 ZF1-4 H156A (human, UniProt Q96C55 110-223, H156A).
T11 sequence: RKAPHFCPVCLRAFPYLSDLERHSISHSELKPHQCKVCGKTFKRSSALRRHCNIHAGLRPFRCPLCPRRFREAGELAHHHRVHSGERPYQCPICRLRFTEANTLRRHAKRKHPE
Described as above. As to conditions: protein: recombinant; tags: none (GST removed by TEV); blunt.

A further series has as its target T12, ZNF524 ZF1-4 S155A (human, UniProt Q96C55 110-223, S155A).
T12 sequence: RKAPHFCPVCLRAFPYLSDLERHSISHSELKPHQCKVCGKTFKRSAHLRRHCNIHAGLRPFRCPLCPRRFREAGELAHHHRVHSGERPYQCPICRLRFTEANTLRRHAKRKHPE
Described as above. As to conditions: protein: recombinant; tags: none (GST removed by TEV); blunt.

The target of series [2] is T13, ZNF524 ZF2-4 (ZF1 removed) (human, UniProt Q96C55 138-223).
T13 sequence: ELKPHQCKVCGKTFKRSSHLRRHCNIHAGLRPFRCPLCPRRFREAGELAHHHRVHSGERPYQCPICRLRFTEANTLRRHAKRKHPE
The description is as above. As to conditions: protein: recombinant; tags: none (GST removed by TEV); blunt.

The next series addresses T14, ZNF524 ZF1-4 R215A (human, UniProt Q96C55 110-223, R215A).
T14 sequence: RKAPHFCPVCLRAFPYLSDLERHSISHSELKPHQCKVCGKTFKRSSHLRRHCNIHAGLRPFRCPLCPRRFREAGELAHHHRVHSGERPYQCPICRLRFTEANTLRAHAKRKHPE
The description is as above. As to conditions: protein: recombinant; tags: none (GST removed by TEV); blunt.

Another series has as its target T15, ZNF524 ZF1-4 E181A (human, UniProt Q96C55 110-223, E181A).
T15 sequence: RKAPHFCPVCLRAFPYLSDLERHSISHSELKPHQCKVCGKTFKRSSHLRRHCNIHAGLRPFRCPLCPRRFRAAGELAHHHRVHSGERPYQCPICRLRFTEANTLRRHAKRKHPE
The series is described as above. As to conditions: protein: recombinant; tags: none (GST removed by TEV); blunt.

The target of a further series is T16, ZNF524 ZF3-4 (human, UniProt Q96C55 166-223).
T16 sequence: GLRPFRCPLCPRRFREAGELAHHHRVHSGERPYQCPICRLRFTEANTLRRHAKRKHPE
Described as above. As to conditions: protein: recombinant; tags: none (GST removed by TEV); blunt.

Series [3] concerns the target T17, ZNF524 ZF1-3 (ZF4 removed) (human, UniProt Q96C55 110-196).
T17 sequence: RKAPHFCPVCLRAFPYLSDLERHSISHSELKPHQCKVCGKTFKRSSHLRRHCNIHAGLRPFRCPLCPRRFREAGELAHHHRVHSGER
The description is as above. As to conditions: protein: recombinant; tags: none (GST removed by TEV); blunt.

Series [4] addresses T7, ZNF524 ZF1-4 minimal domain. In words: ITC; annealed in 100 mM NaCl; ITC: 20 mM Tris-HCl pH 7.5, 150 mM NaCl, 20 C; pull-down: 50 mM Tris-HCl pH 7.5, 150 mM NaCl, 0.5% IGEPAL, 5 mM MgCl2, 1 mM DTT, salmon sperm DNA, 4 C. As to conditions: protein: recombinant, tags: none (GST removed by TEV), single strand.

B1: telomeric crystal duplex (dsDNA)
DNA 1: AGGGTTAGGGTTAGG
DNA 2: TCCTAACCCTAACCC
As to B1, the binding result with ZNF524 ZF1-4 (crystal) is given as “binds”.

B2: TTAGGG 12-bp duplex (dsDNA)
DNA 1: GGTTAGGGTTAG
DNA 2: CTAACCCTAACC
Turning to B2, the Kd amounted to 410 ± 80 nM with ZNF524 ZF1-4 R180A; 100 ± 90 nM with ZNF524 ZF1-4 R159A; 1210 ± 790 nM with ZNF524 ZF2-3; 170 ± 30 nM in the series with ZNF524 ZF1-4 N211G; 340 ± 50 nM with ZNF524 ZF1-4 R131A; 90 ± 20 nM in series [1]. The Kd was 230 ± 130 nM with ZNF524 ZF1-4 E184A; 150 ± 40 nM with ZNF524 ZF1-4 R153A; 60 ± 40 nM with ZNF524 ZF1-4 H156A; 250 ± 30 nM with ZNF524 ZF1-4 S155A; 620 ± 100 nM in [2]; 220 ± 60 nM with ZNF524 ZF1-4 R215A. Also, the results for the Kd (in the series with ZNF524 ZF1-4 E181A; in series [3]) were 420 ± 90 nM and 590 ± 150 nM, respectively. For the same molecule, the binding result with ZNF524 ZF2M and in the series with ZNF524 ZF3-4 was “no binding” each time.

B3: GTGAGT duplex (dsDNA)
DNA 1: GTGTGAGTGTGA
DNA 2: TCACACTCACAC
Take B3: the binding result in series [1] was “no binding”.
For the molecule TTAGGGTTAGGGTTAGGGTTAGGG (ssDNA) [(TTAGGG)4-ssDNA], the binding result in [4] was “no binding”.

B4: TGAGGG duplex (dsDNA)
DNA 1: GGTGAGGGTGAG
DNA 2: CTCACCCTCACC
As for B4, the Kd in series [1] was found to be 270 ± 110 nM.

B5: TTGGGG duplex (dsDNA)
DNA 1: GGTTGGGGTTGG
DNA 2: CCAACCCCAACC
B5: the Kd in [1] was 330 ± 130 nM.

B6: TCAGGG duplex (dsDNA)
DNA 1: GGTCAGGGTCAG
DNA 2: CTGACCCTGACC
As for B6, in series [1], the Kd was found to be 280 ± 40 nM.

Values taken from article PMC10716145, “ZNF524 directly interacts with telomeric DNA and supports telomere integrity”.
